Patent US20160045158A1, “DEVICES, SYSTEMS, AND METHODS FOR TRANSDERMAL DELIVERY OF COMPOUNDS” (PROMETHEON PHARMA, LLC, priority 2013, published 2016)

What was measured:
[1] = cited from earlier work
[2] = tested on: EpidermFT™ (MatTek) full thickness human skin equivalent tissues; assay: Transdermal flux/accumulation across EpidermFT full thickness human skin equivalents (Iso-Insulin ELISA of receptor fluid); format: in vitro ADME
Protocol: Proof-of-concept ex vivo studies of transdermal delivery of long-acting insulin analogues by a poloxamer 188, propylene glycol and lauracopram formulation designated TopiconDM™ were performed using metabolically active full thickness human skin equivalent (HSE) inserts from EpidermFT™ (MatTek) grown on a semi-permeable membrane that allows test compounds to pass through the tissue and accumulate in the receptor fluid on the other side. It is important to note that the term TopiconDM™ is a trademark, is not descriptive of the subject formulation, and is merely an indication of the source of the subject formulation. Thus, the use of the term TopiconDM™ herein shall not be used to affect any trademark rights associated with the term TopiconDM™.
All transdermal delivery in this model occurs exclusively by permeation across the barrier-enhanced stratum corneum. Drug permeation studies were modeled according to classic Franz cell in-sink diffusion studies. Studies were carried out for 5-7 continuous days to determine whether a 7-day TopiconDM™ basal insulin patch containing an insulin or insulin analogue is feasible. A semi-high throughput protocol was developed for the use of EpidermFT™, a barrier enhanced, mitotically and metabolically active human skin tissue model.
To determine the feasibility of creating a 7-day (weekly) TopiconDM™ insulin glargine patch, a protocol was developed in which the tissue inserts were incubated in tissue culture maintenance medium (with serum). All insulin and insulin analogues were commercially purchased and lyophilized. TopiconDM™ insulin glargine formulations were specifically adjusted to pH 4.0; all other insulin formulations were adjusted to pH ˜7 were prepared to deliver doses ranging from 0.01-50 IU in a volume of 50 microliters at 32° C. applied to the apical surface of individual 0.6 cm^2 EpidermFT™ (MatTek) full thickness human skin equivalent tissues in 6-well plates containing 2.0 ml of receptor fluid incubated at 32° C. throughout the duration of each study. It was empirically determined that 50 microliters of the formulations was sufficient to cover the entire surface of the tissue inserts when applied directly to the center. 200 microliter samples from the receptor chamber on the basal side were removed at 0.5, 1, 2, 3, 6, 8, 12, 20, 24 hours and then every 24 hours for up to 7-days; 200 microliters of fresh maintenance medium with serum was added back to receptor chamber after each sampling (closed system model). Plasma insulin and insulin analogue accumulation in mIU/cm^2 (reflecting transdermal delivery across 0.6 cm^2 tissue surface area) was quantified using the Iso-Insulin ELISA Kit (Mercodia AB, Uppsala, Sweden).
The MatTek EpidermFT™ (EFT-300) tissues are also documented to have more of the structural features of the basement membrane. […] The saturating dose for insulin glargine is 10 U/0.6 cm^2 since the flux is not increased at a dose of 20 U/0.6 cm^2. Indeed, the accumulation curves for these doses are superimposable. Results reflect ELISA measurements (Mercodia Iso-Insulin) performed in triplicate for samples at each time point.

[3] = tested on: keratinized apical layer of the mouse cervix; details: in vivo
From the text: The P188/PG (80/20 ratio) co-polymer was then used to deliver FITC-tagged 38 amino acid cytotoxic decoy peptides.
To achieve topical delivery of decoy peptides into the entire mouse cervical T-zone, a solid FITC-tagged decoy peptide-containing co-polymer/enhancer rod was manually delivered into the endocervical canal and into one of the 2 cervical/uterine horns of a 7 month old K14E6 homozygous female transgenic mouse expressing the HPV type 16 E6 oncoprotein that synergizes with 1713-estradiol to induce low-grade dysplasia (CIN I, II) in situ that closely mimics the step-wise development of human cervical cancer; the “untreated” cervical served as an internal control.
After animals were anesthetized, a “speculum” comprised of a standard P-100 pipette tip with the tip cut off at the midpoint along its length was inserted into the vagina to expose the opening of the cervical canal. A three-fourth inch long, 24-guage catheter (Teruma Surflush; inner diameter 0.47 mm) with the trocar removed was fit onto a compatible P-10 micropipette. The catheter was loaded with the peptide-containing, liquid co-polymer/enhancer formulation to a length that approximates the entire cervical T-zone and extends across the squamo-columnar junction into the uterine horn. […]
1 mM FITC-conjugated *Br1 was used for direct visualization of peptide delivery by fluorescence microscopy. […]

[4] = Plasma glargine PK in STZ-induced male CD hairless rats (type 1 DM); format: in vivo, rat; details: single 2 U subcutaneous injection
Protocol: (§1) Referring to FIG. 14, shown is a 24 Hour PK/PD study showing rapid appearance in and elimination of SC Injected Glargine from the Systemic Circulation. The red plot is the glargine concentration from pooled plasma (average±std dev of ELISA measurements). Blue plot is blood glucose (BG) concentration (average±std dev) measured by ACCU-CHEK® Aviva glucose meter. Average BG (blue line) and range (white horizontal bar) in normal CD hairless rats was determined to be ˜130 mg/dL (100-160 mg/dL) in a cohort of adult rats weighing ˜250 gm.
ELISA to quantitate the plasma glargine level was performed in triplicate on pooled blood for each time point (alternating N=2 and N=3) using the Mercodia Iso-Insulin kit. Blood samples were pooled to allow for adequate sampling of many time points over the course of 24-hour study and to reduce variability. This method has been validated for performing PK studies.
(§2) Green plot is plasma glargine concentration (average±std dev). Brown plot is blood glucose concentration (average±std dev) measured by ACCU-CHEK® Aviva glucose meter. Measurements were obtained from all individual animals (N=4) at each time point (i.e. blood samples were not pooled). ELISA to quantitate the plasma glargine level was performed in triplicate on blood samples from individual animals (N=4) at each time point using the Mercodia Iso-Insulin kit.

[5] = format: in vitro ADME, human
Protocol: In human studies, the total plasma free insulin concentration reached a plateau concentration of 18.9 µIU/mL based on a well cited published study of glargine pharmacokinetics after a single subcutaneous injection in type 1 diabetic subjects over 3-24 hours (Lepore, M et al 2000, Diabetes 49:2142-2148). However, the actual steady-state plateau glargine concentration was 6.4 µIU/mL because the patients were titrated to an insulin concentration of ˜12.5 µIU/mL with a continuous lispro short-acting insulin infusion before glargine was administered. After scaling for average adult blood volume of 5 L and adjusting for known cross-reactivity of our ELISA assay with various insulin analogues (44% for glargine, 22% for detemir), a table comparing patch size and insulin dose required to achieve targets of 6.4 µIU/mL within 24 hours after administration of TopiconDM™ containing insulin glargine could be determined. […] However, it is apparent that the 10 IU/0.6 cm^2 dose of insulin glargine can achieve and maintain a target steady-state total insulin concentration of 6.4 µIU/mL with a 0.6×0.6 cm patch throughout the 5-days of the study.
The concentration of insulin glargine achieved is based on accumulation in 2.5 ml of receptor volume in the tissue model extrapolated to average adult blood volume of 5 L. […]

[6] = tested on: STZ-Induced Male CD Hairless Rat: Type 1 DM; assay: Blood glucose PD in STZ-induced male CD hairless rats (type 1 DM); format: in vivo
Protocol: as §1
PD (Y-axis scale on right): The blood glucose (BG) and plasma glargine plots are essentially minor images of each other, consistent with an expected dramatic BG lowering effect after insulin glargine injection. The baseline mean BG of ˜375 mg/dL rapidly reached a nadir of ˜70-80 mg/dL that was persistent between 0.5-5 hours, representing asymptomatic hypoglycemia.
as §2
Referring to FIG. 16, A PD study of insulin glargine BG lowering effect comparing 1 U subcutaneous (sc) injection (gold standard) versus 5 U/1 cm^2 patch was performed. Referring to FIG. 18, the blue plot is BG concentration (average±std dev) of rats that received a single 1 U subcutaneous injection. Brown plot is BG concentration of rats that received a 5 U/1 cm^2 patch. BG measurements by ACCU-CHEK® Aviva glucose meter were obtained from all individual animals (N=4) at each time point (i.e. blood samples were not pooled). ELISA to quantitate the plasma glargine level was performed in triplicate on blood samples from individual animals (N=4) at each time point using the Mercodia Iso-Insulin kit.

insulin detemir
Cmax for adults ([1]; single 0.5 U/kg dose, patients with type 1 DM): 208 microU/mL

insulin lispro
flux dose-response [2]: clear dose-response

insulin aspart
flux dose-response [2]: clear dose-response

insulin glulisine
flux dose-response [2]: clear dose-response

ERQIKIWFQNRRMKWKKATGCLLDDGLEGLFEDID [*Br1]
penetration across keratinized apical layer of mouse cervix / cervical squamous epithelium [3]: Successful transdermal delivery

Human growth hormone (hGH): human growth hormone (22 kDa)
flux dose-response [2]: clear dose-response

insulin glargine
return of plasma concentration to baseline level [4]: ≤ 5 h
t1/2 [4]: ~2 h
Cmax (plasma glargine) ([4]; adult rats ~250 gm): ~120 microU/mL
flux dose-response [2]: clear dose-response
saturating dose (flux not increased at 20 U/0.6 cm^2) [2]: 10 U/0.6 cm^2
actual steady-state plateau glargine concentration ([1]; after subtracting ~12.5 µIU/mL lispro infusion background): 6.4 µIU/mL
total plasma free insulin plateau concentration ([1]; single subcutaneous injection of glargine, type 1 diabetic subjects, over 3-24 hours (Lepore 2000)): 18.9 µIU/mL
mean plateau plasma concentration ([1]; single subcutaneous injection, patients with type 1 diabetes): ~6.4 micoU/mL
size of patch required to achieve and maintain target levels [5]: under 1 cm×1 cm
hypoglycemia (BG<100 mg/dL) ([6]; 1 U sc injection): rapidly became hypoglycemic
hypoglycemia (BG<100 mg/dL) ([6]; 2 U sc injection): rapidly became hypoglycemic
period during which blood glucose nadir persisted ([6]; 2 U subcutaneous injection): 0.5 to 5 h
blood glucose nadir ([6]; 2 U subcutaneous injection, baseline mean BG ~375 mg/dL): 70 to 80 mg/dL
